# Measurements as given in patent publication US20160115241A1 (Amgen, published 2016).
# T1: cynomolgus monkey CD3 epsilon chain (CD3ε) (cynomolgus monkey (Macaca fascicularis), UniProt Q95LI5 22-198)
# T1 construct: also called cynomolgus monkey CD3ε; CD3ε on cyno T cells
# T1 chain: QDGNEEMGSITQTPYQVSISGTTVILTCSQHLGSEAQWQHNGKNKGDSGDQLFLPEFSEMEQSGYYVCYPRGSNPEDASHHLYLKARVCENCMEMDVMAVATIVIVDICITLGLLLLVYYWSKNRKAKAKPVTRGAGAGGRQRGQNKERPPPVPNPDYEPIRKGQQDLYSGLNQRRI
# Experiments:
# [1] = biological target: T2, human CD3 epsilon chain (CD3ε) (human, UniProt P07766 22-207); assay: FACS on isolated human T cells; FITC anti-human light chain secondary
# T2 construct: also called CD3ε on human T cells; human CD3ε
# T2 sequence (P07766 22-207 limits assumed): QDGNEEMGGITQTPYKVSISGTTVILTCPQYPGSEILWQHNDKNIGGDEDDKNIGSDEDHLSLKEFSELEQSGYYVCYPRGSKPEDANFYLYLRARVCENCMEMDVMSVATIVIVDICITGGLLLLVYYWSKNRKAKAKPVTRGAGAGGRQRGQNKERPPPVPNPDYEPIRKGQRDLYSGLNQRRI
# Method: (§1) The heterodimeric bispecific antibodies described in Example 1 were produced in HEK 293 cells and were assayed by fluorescence activated cell sorting (FACS) for binding to T cells, which express CD3ε, and to a human ovarian cancer cell line, Ovcar-8, which expresses mesothelin. Briefly, the heterodimeric bispecific antibodies were incubated with about 50,000 Ovcar-8 cells or isolated human or cynomolgus monkey T cells at 4° C. for one hour. The cells were then washed and stained with a fluorescein isothiocyanate (FITC)-conjugated anti-human light chain secondary antibody and analyzed by flow cytometry. The relative binding was represented by the geometric mean of fluorescence intensity.
# [2] = biological target: T1, cynomolgus monkey CD3 epsilon chain …; assay: FACS on isolated cynomolgus monkey T cells; FITC anti-human light chain secondary
# Method: as §1
# [3] = biological target: T1, cynomolgus monkey CD3 epsilon chain …; assay: cell-based or functional assay
Binder,FACS binding (geometric mean) [1],FACS binding (geometric mean) [2],"Cyno TDCC EC50 (pM), Ovcar-8 target cells with cynomolgus monkey T cells [3]","Cyno TDCC Max killing (%), Ovcar-8 target cells with cynomolgus monkey T cells [3]"
P57216.9 (anti-MSLN/CD3ε heterodimeric bispecific antibody) (bispecific antibody) chain 1: QVQLQESGPGLVKPSQTLSLTCTVSGGSINNNNYYWTWIRQHPGKGLEWIGYIYYSGSTFYNPSLKSRVTISVDTSKTQFSLKLSSVTAADTAVYYCAREDTMTGLDVWGQGTLVTVSSASTKGPEVQLVESGGGLVKPGVSLRLSCAASGFTFSRYSMNWVRQAPGKGLEWVSSISSSGTYIKYADSVKGRFTISRDNAKNSLNLQMNSLRAEDTAVYYCARDRDRYPLDYWGQGTLVTVSSASTKGPSVFPLAPCSRSTSESTAALGCLVKDYFPEPVTVSWNSGALTSGVHTFPAVLQSSGLYSLSSVVTVPSSNFGTQTYTCNVDHKPSNTKVDKTVGGGGSAAAVPRDLEVVAATPTSLLISWDAPHHGVAYYRITYGETGGNSPVQEFTVPGSKSTATISGLKPGVDYTINVYAVLAYPRGYPLSKPISINYRTDYKDDDDKGSSHHHHHH chain 2: DIQMTQSPSSLSASVGDRVTITCRASQSINNYLNWYQQKPGKAPTLLIYAASSLQSGVPSRFSGSRSGTDFTLTISSLQPEDFAAYFCQQTYSNPTFGQGTKVEVKRTVAAPSSYELTQPPSVSVSPGQTARITCSGDALPKKYAYWYQQKSGQAPVLVIYEATKRPSGIPERFSGSSSGTMATLTLSGAQVEDEADYYCYSTDSTNYHWVFGGGTKLTVLGQPKAAPSVTLFPPSSEELQANKATLVCLISDFYPGAVTVAWKADSSPVKAGVETTTPSKQSNNKYAASSYLSLTPEQWKSHRSYSCQVTHEGSTVEKTVAPTECS,103 geometric mean of fluorescence intensity,–,–,–
H71362.2 (anti-MSLN/CD3ε heterodimeric bispecific antibody) (bispecific antibody) chain 1: EVQLVESGGGLVKPGVSLRLSCAASGFTFSRYGMNWVRQAPGKGLEWVSSISSSGTYIKYADSVKGRFTISRDNAKNSLNLQMNSLRAEDTAVYYCARDRDRYPLDYWGQGTLVTVSSASTKGPQVQLQESGPGLVKPSETLSLTCTVSGGSIISHYWSWIRQPPGKGLEWIGYIYYSGSTNYNPSLKSRVTISVDTSKNQFSLKLTSVTAADTAVYYCARDGWSAFDYWGQGTLVTVSSASTKGPSVFPLAPCSRSTSESTAALGCLVKDYFPEPVTVSWNSGALTSGVHTFPAVLQSSGLYSLSSVVTVPSSNFGTQTYTCNVDHKPSNTKVDKTVGGGGSAAAVPRDLEVVAATPTSLLISWDAIGLYPYYYRITYGETGGNSPVQEFTVPGSKSTATISGLKPGVDYTITVYAVSGIFGWNNSKPISINYRTGSSDYKDDDDKGSSHHHHHH chain 2: SYELTQPPSVSVSPGQTARITCSGDALPKKYAYWYQQKSGQAPVLVIYEATKRPSGIPERFSGSSSGTMATLTLSGAQVEDEADYYCYSTDSTNYHWVFGGGTKLTVLGTVAAPDIQMTQSPSSLSASVGDRVTITCRASQGIRNALGWYQQKPGKAPKRLIYAASSLQSGVPSRFSGSGSGTEFTLTISSLQPEDFATYYCLQHNSYPRTFGQGTKVEIRRTVAAPSVFIFPPSDEQLKSGTASVVCLLNNFYPREAKVQWKVDNALQSGNSQESVTEQDSKDSTYSLSSTLTLSKADYEKHKVYACEVTHQGLSSPVTKSFNRGEC,354 geometric mean of fluorescence intensity,–,–,–
H69070.4 (anti-MSLN/CD3ε heterodimeric bispecific antibody) (bispecific antibody) chain 1: QVQLVESGGGVVQPGRSLRLSCAASGFTFSSYGMHWVRQAPGKGLEWVAVISYPGNTKYYADSVKGRFTISRDNSKNTLYLQMNSLRAEDTAVYFCARDQKEWRLIFDYWGQGTLVTVSSASTKGPQVQLQESGPGLVKPSETLSLTCTVSGGSIISHYWSWIRQPPGKGLEWIGYIYYSGSTNYNPSLKSRVTISVDTSKNQFSLKLTSVTAADTAVYYCARDGWSAFDYWGQGTLVTVSSASTKGPSVFPLAPCSRSTSESTAALGCLVKDYFPEPVTVSWNSGALTSGVHTFPAVLQSSGLYSLSSVVTVPSSNFGTQTYTCNVDHKPSNTKVDKTVGGGGSAAAVPRDLEVVAATPTSLLISWDAPHHGVAYYRITYGETGGNSPVQEFTVPGSKSTATISGLKPGVDYTINVYAVLAYPRGYPLSKPISINYRTDYKDDDDKGSSHHHHHH chain 2: DIQMTQSPSSVSASVGDRVTITCRASQGISSWLAWYQQKPGKAPKLLIYAASSLQSGVPSRFSGSGSGAAFTLTISSLQPEDFATYFCQQANSFPLTFAGGTKVDIKRTVAAPDIQMTQSPSSLSASVGDRVTITCRASQGIRNALGWYQQKPGKAPKRLIYAASSLQSGVPSRFSGSGSGTEFTLTISSLQPEDFATYYCLQHNSYPRTFGQGTKVEIRRTVAAPSVFIFPPSDEQLKSGTASVVCLLNNFYPREAKVQWKVDNALQSGNSQESVTEQDSKDSTYSLSSTLTLSKADYEKHKVYACEVTHQGLSSPVTKSFNRGEC,9 geometric mean of fluorescence intensity,127 geometric mean of fluorescence intensity,3 pM,88%

# Continued, in another order:
FACS binding (geometric mean) [1],FACS binding (geometric mean) [2],"Cyno TDCC EC50 (pM), Ovcar-8 target cells with cynomolgus monkey T cells [3]",Binder,"Cyno TDCC Max killing (%), Ovcar-8 target cells with cynomolgus monkey T cells [3]"
290 geometric mean of fluorescence intensity,–,–,"P69058.3 (anti-MSLN/CD3ε heterodimeric bispecific antibody) (bispecific antibody, VH(CD3ε)-linker-VL(MSLN)-CL) chain 1: QVQLQESGPGLVKPSQTLSLTCTVSGGSINNNNYYWTWIRQHPGKGLEWIGYIYYSGSTFYNPSLKSRVTISVDTSKTQFSLKLSSVTAADTAVYYCAREDTMTGLDVWGQGTLVTVSSGGGGSGGGGSSSYELTQPPSVSVSPGQTARITCSGDALPKKYAYWYQQKSGQAPVLVIYEATKRPSGIPERFSGSSSGTMATLTLSGAQVEDEADYYCYSTDSTNYHWVFGGGTKLTVLGASTKGPSVFPLAPCSRSTSESTAALGCLVKDYFPEPVTVSWNSGALTSGVHTFPAVLQSSGLYSLSSVVTVPSSNFGTQTYTCNVDHKPSNTKVDKTVGGGGSAAAVPRDLEVVAATPTSLLISWDAPHHGVAYYRITYGETGGNSPVQEFTVPGSKSTATISGLKPGVDYTINVYAVLAYPRGYPLSKPISINYRTDYKDDDDKGSSHHHHHH chain 2: EVQLVESGGGLVKPGVSLRLSCAASGFTFSRYGMNWVRQAPGKGLEWVSSISSSGTYIKYADSVKGRFTISRDNAKNSLNLQMNSLRAEDTAVYYCARDRDRYPLDYWGQGTLVTVSSGGGGSGGGGSDIQMTQSPSSLSASVGDRVTITCRASQSINNYLNWYQQKPGKAPTLLIYAASSLQSGVPSRFSGSRSGTDFTLTISSLQPEDFAAYFCQQTYSNPTFGQGTKVEVKRTVAAPSVFIFPPSDEQLKSGTASVVCLLNNFYPREAKVQWKVDNALQSGNSQESVTEQDSKDSTYSLSSTLTLSKADYEKHKVYACEVTHQGLSSPVTKSFNRGEC",–
179 geometric mean of fluorescence intensity,–,–,"P69059.3 (anti-MSLN/CD3ε heterodimeric bispecific antibody) (bispecific antibody, VL(MSLN)-linker-VH(CD3ε)-CL) chain 1: SYELTQPPSVSVSPGQTARITCSGDALPKKYAYWYQQKSGQAPVLVIYEATKRPSGIPERFSGSSSGTMATLTLSGAQVEDEADYYCYSTDSTNYHWVFGGGTKLTVLGGGGGSGGGGSQVQLQESGPGLVKPSQTLSLTCTVSGGSINNNNYYWTWIRQHPGKGLEWIGYIYYSGSTFYNPSLKSRVTISVDTSKTQFSLKLSSVTAADTAVYYCAREDTMTGLDVWGQGTTVTVSSASTKGPSVFPLAPCSRSTSESTAALGCLVKDYFPEPVTVSWNSGALTSGVHTFPAVLQSSGLYSLSSVVTVPSSNFGTQTYTCNVDHKPSNTKVDKTVGGGGSAAAVPRDLEVVAATPTSLLISWDAPHHGVAYYRITYGETGGNSPVQEFTVPGSKSTATISGLKPGVDYTINVYAVLAYPRGYPLSKPISINYRTDYKDDDDKGSSHHHHHH chain 2: DIQMTQSPSSLSASVGDRVTITCRASQSINNYLNWYQQKPGKAPTLLIYAASSLQSGVPSRFSGSRSGTDFTLTISSLQPEDFAAYFCQQTYSNPTFGQGTKVEVKGGGGSGGGGSEVQLVESGGGLVKPGVSLRLSCAASGFTFSRYSMNWVRQAPGKGLEWVSSISSSGTYIKYADSVKGRFTISRDNAKNSLNLQMNSLRAEDTAVYYCARDRDRYPLDYWGQGTLVTVSSRTVAAPSVFIFPPSDEQLKSGTASVVCLLNNFYPREAKVQWKVDNALQSGNSQESVTEQDSKDSTYSLSSTLTLSKADYEKHKVYACEVTHQGLSSPVTKSFNRGEC",–
16 geometric mean of fluorescence intensity,121 geometric mean of fluorescence intensity,3.2 pM,H69071.4 (anti-MSLN/CD3ε heterodimeric bispecific antibody) (bispecific antibody) chain 1: QVQLQESGPGLVKPSQTLSLTCTVSGGSINNNNYYWTWIRQHPGKGLEWIGYIYYSGSTFYNPSLKSRVTISVDTSKTQFSLKLSSVTAADTAVYYCAREDTMTGLDVWGQGTLVTVSSGGGGSGGGGSDIQMTQSPSSVSASVGDRVTITCRASQGISSWLAWYQQKPGKAPKLLIYAASSLQSGVPSRFSGSGSGAAFTLTISSLQPEDFATYFCQQANSFPLTFAGGTKVDIKRASTKGPSVFPLAPCSRSTSESTAALGCLVKDYFPEPVTVSWNSGALTSGVHTFPAVLQSSGLYSLSSVVTVPSSNFGTQTYTCNVDHKPSNTKVDKTVGGGGSAAAVPRDLEVVAATPTSLLISWDAPHHGVAYYRITYGETGGNSPVQEFTVPGSKSTATISGLKPGVDYTINVYAVLAYPRGYPLSKPISINYRTDYKDDDDKGSSHHHHHH chain 2: QVQLVESGGGVVQPGRSLRLSCAASGFTFSSYGMHWVRQAPGKGLEWVAVISYPGNTKYYADSVKGRFTISRDNSKNTLYLQMNSLRAEDTAVYFCARDQKEWRLIFDYWGQGTLVTVSSGGGGSGGGGSDIQMTQSPSSLSASVGDRVTITCRASQSINNYLNWYQQKPGKAPTLLIYAASSLQSGVPSRFSGSRSGTDFTLTISSLQPEDFAAYFCQQTYSNPTFGQGTKVEVKRTVAAPSVFIFPPSDEQLKSGTASVVCLLNNFYPREAKVQWKVDNALQSGNSQESVTEQDSKDSTYSLSSTLTLSKADYEKHKVYACEVTHQGLSSPVTKSFNRGEC,88%
